Measured values as given in US6566080 (NEW ENGLAND MEDICAL CENTER HOSPITALS, dated 2003).
Ends that are not written are not given here.

T1: wild-type human CCK-B/gastrin receptor (human, UniProt P32239 1-447)
T1 construct: Expressed from hCCKB-pcDNA I in transiently transfected COS-7 cells (also in stably transfected CHO cells); also called hCCK-B; human brain CCK-B receptor
T1 sequence: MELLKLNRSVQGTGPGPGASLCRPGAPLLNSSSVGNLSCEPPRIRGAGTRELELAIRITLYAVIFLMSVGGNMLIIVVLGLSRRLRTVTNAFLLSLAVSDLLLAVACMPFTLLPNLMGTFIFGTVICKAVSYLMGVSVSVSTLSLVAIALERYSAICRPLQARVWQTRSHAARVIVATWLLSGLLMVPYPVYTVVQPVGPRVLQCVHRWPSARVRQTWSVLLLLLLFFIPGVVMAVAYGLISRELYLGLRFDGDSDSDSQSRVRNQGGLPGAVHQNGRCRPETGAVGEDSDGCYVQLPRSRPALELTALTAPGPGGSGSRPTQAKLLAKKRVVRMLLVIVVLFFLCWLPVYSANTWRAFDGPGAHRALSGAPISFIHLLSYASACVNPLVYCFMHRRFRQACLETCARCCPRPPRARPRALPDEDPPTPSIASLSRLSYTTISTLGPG

T2: constitutively active human CCK-B/gastrin receptor mutant MH162 (^325L→E) (human, UniProt P32239 1-447)
T2 construct: Transiently expressed in COS-7 cells; also called MH162 Mutant; ^325L→E mutant
T2 sequence: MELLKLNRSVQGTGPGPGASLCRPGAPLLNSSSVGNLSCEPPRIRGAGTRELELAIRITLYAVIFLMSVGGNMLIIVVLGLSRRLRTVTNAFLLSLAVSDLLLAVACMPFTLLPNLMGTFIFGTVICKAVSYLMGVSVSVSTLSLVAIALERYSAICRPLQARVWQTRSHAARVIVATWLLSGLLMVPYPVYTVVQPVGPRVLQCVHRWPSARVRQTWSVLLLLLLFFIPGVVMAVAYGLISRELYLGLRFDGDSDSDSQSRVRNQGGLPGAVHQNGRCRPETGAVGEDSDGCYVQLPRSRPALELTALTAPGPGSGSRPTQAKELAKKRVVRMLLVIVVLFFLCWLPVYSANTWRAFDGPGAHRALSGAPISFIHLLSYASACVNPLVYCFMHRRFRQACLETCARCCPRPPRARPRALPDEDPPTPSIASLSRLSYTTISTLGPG

T3: wild-type rat CCK-A receptor (rat, UniProt P30551 1-444)
T3 sequence: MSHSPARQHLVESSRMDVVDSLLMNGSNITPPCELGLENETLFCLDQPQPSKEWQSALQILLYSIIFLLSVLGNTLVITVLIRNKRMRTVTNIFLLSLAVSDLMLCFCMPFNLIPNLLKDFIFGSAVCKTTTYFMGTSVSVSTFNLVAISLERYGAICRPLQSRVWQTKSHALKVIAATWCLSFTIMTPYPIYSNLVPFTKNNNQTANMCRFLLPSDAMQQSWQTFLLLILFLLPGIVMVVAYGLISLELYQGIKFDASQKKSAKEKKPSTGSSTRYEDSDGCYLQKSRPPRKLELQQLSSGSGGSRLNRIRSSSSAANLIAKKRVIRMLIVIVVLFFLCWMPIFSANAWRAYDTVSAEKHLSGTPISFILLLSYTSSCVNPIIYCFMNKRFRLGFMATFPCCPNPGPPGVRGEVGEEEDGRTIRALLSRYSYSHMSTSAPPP


Legend:
[1] = biological target: T1, wild-type human CCK-B/gastrin receptor; assay: ^125I-CCK-8 competition binding on COS-7 cells transfected with hCCK-B-pcDNAI
Description: (§1) COS-7 cells (1.5 ×10^6) were plated in 10-cm culture dishes (Nunc) and grown in Dulbecco's modified Eagle's medium containing 10% fetal calf serum in a 5% CO_2, 95% air incubator at 37° C. After an overnight incubation, cells were transfected (Pacholczyk et al., *Nature* 350:350–354, 1991) with 5–7 μg of a pcDNA I expression vector containing hCCKB (HCCKB-pcDNA I). Twenty-four hours after transfection cells were split into 24-well dishes (2 ×10^4 cells/well) (Costar). After an additional 24 hours, competition binding experiments were performed in Hank's buffer supplemented with 25 mM phenylmethylsulfonyl fluoride (PMSF). […] Equilibrium binding occurred after incubation for 80 min. at 37° C. Cell monolayers were then washed three times, hydrolyzed in 1 N NaOH, and the amount of radioactivity to the receptor was quantified. […] All binding experiments were repeated three to five times.
(§2) The competition data were analyzed using computer software which is specifically designed for the purpose of radioligand binding assays (Inplot 4.0, GraphPad, San Diego, Calif.). Analyses of competition and saturation binding data can also be performed using computerized non-linear curve fitting (McPherson, G. A., *J Pharmacol Methods*, 14:213–28, 1985).

[2] = biological target: T1, wild-type human CCK-B/gastrin receptor; assay: ^125I-CCK-8 competition binding on transfected COS-7 cells
[3] = biological target: T2, constitutively active human …; assay: as above
[4] = biological target: T1, wild-type human CCK-B/gastrin receptor; assay: cell-based or functional assay
[5] = biological target: T2, constitutively active human …; assay: cell-based or functional assay
[6] = biological target: T2, constitutively active human …; assay: ^125I-CCK-8 competition binding; Ki at wild-type receptor over Ki at MH162
Description: as §1, §2

[7] = biological target: T3, wild-type rat CCK-A receptor; assay: cell-based or functional assay

IC50 [1]	Ki [2]	Ki [3]	Signaling potencies of tested ligands, IC50 [4]	Signaling potencies of tested ligands, IC50 [5]	Signaling potencies, Ratio (Wild-type/Mutant) [5]	Ratio (Wild-type/Mutant) of Ki [6]	CCK-8s stimulated (% human basal) inositol phosphate production [7]	Binder
0.94 nM	1.35 nM	0.8 nM	0.24 nm	0.2 nm	1.2	1.69	–	QGPWLEEEEEAYGWMDF (peptide, UniProt P01350 76-92, looked up, not fully specified (residue 1, C-terminus), domain: gastrin-17) [Gastrin I (unsulphated gastrin-17)]
–	–	–	–	–	–	–	684 % human basal	DYMGWMDF (peptide, UniProt P06307 96-103, looked up, not fully specified (residue 2, C-terminus)) [sulfated CCK-8 (CCK-8s)]
